# Test results taken from article PMC6422423, “Constitutively active BRS3 is a genuinely orphan GPCR in placental mammals” (PLoS Biology, 2019).
# Where no end group is shown, it is not given here.
# Columns and labels:
# [1] = molecular target: spotted gar bombesin receptor subtype-3 (spotted gar (Lepisosteus oculatus)); assay: radioligand binding; displacement of 50 pM [125I]-Tyr-NMB by unlabeled peptide on disaggregated transfected HEK293 cells; 1 h at 21°C; 24.5 mM HEPES pH 7.4, 98 mM NaCl; bound tracer separated by centrifugation
# spotted gar bombesin receptor subtype-3 (spotted gar (Lepisosteus oculatus)), sequence (main, as listed by the source): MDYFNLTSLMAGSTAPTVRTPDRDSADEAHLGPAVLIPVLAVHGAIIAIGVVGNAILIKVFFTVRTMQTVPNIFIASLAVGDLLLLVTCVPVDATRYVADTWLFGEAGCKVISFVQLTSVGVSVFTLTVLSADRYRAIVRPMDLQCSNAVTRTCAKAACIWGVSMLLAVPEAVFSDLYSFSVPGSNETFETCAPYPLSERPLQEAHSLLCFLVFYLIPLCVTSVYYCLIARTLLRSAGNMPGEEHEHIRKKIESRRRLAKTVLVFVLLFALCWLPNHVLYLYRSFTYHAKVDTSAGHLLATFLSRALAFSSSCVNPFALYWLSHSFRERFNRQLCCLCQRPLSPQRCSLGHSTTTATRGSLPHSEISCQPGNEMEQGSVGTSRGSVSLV
# [2] = molecular target: chicken bombesin receptor subtype-3 (chicken (Gallus gallus)); assay: as above
# [3] = molecular target: turtle bombesin receptor subtype-3 (turtle (Chrysemys picta)); assay: as above
# turtle bombesin receptor subtype-3 (turtle (Chrysemys picta)), sequence (main, as listed by the source): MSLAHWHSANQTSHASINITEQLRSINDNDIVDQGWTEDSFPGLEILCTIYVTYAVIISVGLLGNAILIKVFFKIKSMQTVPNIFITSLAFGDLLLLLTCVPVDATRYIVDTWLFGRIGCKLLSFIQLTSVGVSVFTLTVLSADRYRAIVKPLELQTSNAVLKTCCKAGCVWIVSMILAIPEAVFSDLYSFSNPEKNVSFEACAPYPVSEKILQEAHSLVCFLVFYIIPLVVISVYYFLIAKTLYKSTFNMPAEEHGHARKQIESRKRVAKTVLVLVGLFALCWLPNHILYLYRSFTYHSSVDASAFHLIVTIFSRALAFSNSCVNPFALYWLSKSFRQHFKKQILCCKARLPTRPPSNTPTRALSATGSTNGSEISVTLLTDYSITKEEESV
# [4] = molecular target: spotted gar bombesin receptor subtype-3 (spotted gar (Lepisosteus oculatus)); assay: radioligand binding; displacement of 50 pM [125I]-Tyr42-GRP by unlabeled peptide on disaggregated transfected HEK293 cells; 1 h at 21°C; 24.5 mM HEPES pH 7.4, 98 mM NaCl; bound tracer separated by centrifugation
# [5] = molecular target: chicken bombesin receptor subtype-3 (chicken (Gallus gallus)); assay: as above
# [6] = molecular target: aardvark bombesin receptor subtype-3 (aardvark (Orycteropus afer)); assay: as above
# aardvark bombesin receptor subtype-3 (aardvark (Orycteropus afer)), sequence (P32247 other isoform, or with tags, fused parts or gaps): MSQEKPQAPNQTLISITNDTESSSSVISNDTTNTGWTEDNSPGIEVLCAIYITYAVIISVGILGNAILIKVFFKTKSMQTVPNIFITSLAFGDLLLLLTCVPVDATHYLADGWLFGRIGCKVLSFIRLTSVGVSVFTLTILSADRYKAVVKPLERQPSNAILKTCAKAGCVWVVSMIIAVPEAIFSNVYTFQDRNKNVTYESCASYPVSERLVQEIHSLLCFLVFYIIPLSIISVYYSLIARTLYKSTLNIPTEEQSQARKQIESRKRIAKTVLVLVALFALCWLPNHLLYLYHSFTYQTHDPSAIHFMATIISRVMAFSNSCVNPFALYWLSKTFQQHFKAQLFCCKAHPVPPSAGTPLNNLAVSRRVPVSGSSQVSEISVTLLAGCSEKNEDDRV
# [7] = molecular target: turtle bombesin receptor subtype-3 (turtle (Chrysemys picta)); assay: as above
binder,measurement,setting,value
"APLQPGGSPALTKIYPRGSHWAVGHLM (ends and bridges not checked) [gastrin-releasing peptide, unlabeled ligand peptide of the radioligand binding assays]",IC50,[1],0.54 nM
same,IC50,[2],0.18 nM
same,IC50,[3],0.28 nM
same,IC50,[4],0.17 nM
same,IC50,[5],0.15 nM
same,Ki,[6],> 1000 nM
same,IC50,[7],0.14 nM
